Molecular target: T1, SRA-Spacer (human, UniProt Q96T88 414-674)
T1 sequence: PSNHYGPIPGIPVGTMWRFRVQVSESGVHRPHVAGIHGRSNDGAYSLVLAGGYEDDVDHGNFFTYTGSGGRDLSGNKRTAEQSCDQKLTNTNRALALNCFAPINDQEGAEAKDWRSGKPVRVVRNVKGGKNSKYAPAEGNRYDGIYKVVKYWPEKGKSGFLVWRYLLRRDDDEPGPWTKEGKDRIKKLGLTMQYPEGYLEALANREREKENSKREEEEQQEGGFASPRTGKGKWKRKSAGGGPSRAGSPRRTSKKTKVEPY
Assay: FP; 150 mM NaCl; ITC: 10 mM HEPES pH 8.0, 100 mM NaCl, 18 C; EMSA: 20 mM HEPES pH 7.5, 100 mM NaCl, 8% glycerol, 1 mM DTT, on ice; pull-down: 20 mM HEPES-NaOH pH 8.0, 100 mM NaC

B1: FAM-12bp-HM-DNA (dsDNA)
DNA 1: CCATGCGCTGAC
DNA 2: GTCAGCGCATGG
modifications: 5-methyl-dC at position 6 of strand 2 (GTCAGXGCATGG)
Kd: 580 ± 98 nM

From publication PMC4822050
